According to publication PMC2756588:

T1: Sla1-2, P32790
T1 sequence (P32790 60-140, looked up): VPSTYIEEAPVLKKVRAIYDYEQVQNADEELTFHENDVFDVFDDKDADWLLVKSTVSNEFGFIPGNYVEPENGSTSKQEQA

T2: Bzz1-2, P38822
T2 sequence (P38822 568-633, looked up): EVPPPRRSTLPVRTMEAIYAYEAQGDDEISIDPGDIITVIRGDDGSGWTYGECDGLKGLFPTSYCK

T3: Lsb1, P53281
T3 sequence (P53281 45-122, looked up): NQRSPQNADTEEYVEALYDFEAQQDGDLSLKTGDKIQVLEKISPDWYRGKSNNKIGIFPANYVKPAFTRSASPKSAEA

T4: Hof1, Q05080
T4 sequence (Q05080 590-669, looked up): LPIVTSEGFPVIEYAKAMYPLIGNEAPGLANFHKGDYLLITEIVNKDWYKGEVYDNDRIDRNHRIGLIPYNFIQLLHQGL

T5: Cyk3, Q07533
T5 sequence (Q07533 1-83, looked up): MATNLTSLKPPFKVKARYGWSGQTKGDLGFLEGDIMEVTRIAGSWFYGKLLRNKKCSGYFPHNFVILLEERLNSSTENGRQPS

T6: Fus1, P11710
T6 sequence (P11710 432-512, looked up): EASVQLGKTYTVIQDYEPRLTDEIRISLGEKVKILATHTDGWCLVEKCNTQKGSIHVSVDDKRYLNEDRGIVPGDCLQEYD

T7: Hse1, P38753
T7 sequence (P38753 208-285, looked up): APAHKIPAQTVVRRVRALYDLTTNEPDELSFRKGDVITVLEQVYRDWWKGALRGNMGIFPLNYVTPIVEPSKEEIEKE

T8: Boi1, P38041
T8 sequence (P38041 1-86, looked up): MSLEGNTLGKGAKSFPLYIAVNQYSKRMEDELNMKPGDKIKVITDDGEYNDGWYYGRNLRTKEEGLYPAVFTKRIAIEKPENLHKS

T9: Myo5, Q04439
T9 sequence (Q04439 1072-1160, looked up): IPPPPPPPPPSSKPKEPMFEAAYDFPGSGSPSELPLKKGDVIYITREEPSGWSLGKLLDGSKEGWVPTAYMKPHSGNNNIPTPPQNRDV

T10: Lsb4, P32793
T10 sequence (P32793 402-468, looked up): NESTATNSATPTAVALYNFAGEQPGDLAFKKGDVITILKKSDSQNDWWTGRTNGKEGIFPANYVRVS

T11: Pin3, Q06449
T11 sequence (Q06449 53-122, looked up): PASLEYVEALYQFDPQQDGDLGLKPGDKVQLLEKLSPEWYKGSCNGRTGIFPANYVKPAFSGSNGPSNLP

T12: Sla1-3, P32790
T12 sequence (P32790 344-424, looked up): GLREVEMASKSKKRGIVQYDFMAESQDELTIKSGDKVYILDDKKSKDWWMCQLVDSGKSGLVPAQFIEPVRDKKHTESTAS

T13: Nbp2, Q12163
T13 sequence (Q12163 103-180, looked up): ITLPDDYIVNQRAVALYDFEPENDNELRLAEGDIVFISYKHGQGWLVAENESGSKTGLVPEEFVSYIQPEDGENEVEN

T14: Abp1, P15891
T14 sequence (P15891 535-592, looked up): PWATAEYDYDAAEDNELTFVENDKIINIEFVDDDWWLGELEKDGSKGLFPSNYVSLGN

T15: Pex13, P80667
T15 sequence (P80667 295-386, looked up): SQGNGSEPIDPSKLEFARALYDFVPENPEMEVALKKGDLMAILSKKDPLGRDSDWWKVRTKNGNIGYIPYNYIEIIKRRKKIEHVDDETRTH

T16: Cdc25, P04821
T16 sequence (P04821 50-136, looked up): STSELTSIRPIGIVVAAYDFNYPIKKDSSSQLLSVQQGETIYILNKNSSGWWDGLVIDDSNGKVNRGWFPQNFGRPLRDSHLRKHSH

T17: Bud14, P27637
T17 sequence (P27637 247-328, looked up): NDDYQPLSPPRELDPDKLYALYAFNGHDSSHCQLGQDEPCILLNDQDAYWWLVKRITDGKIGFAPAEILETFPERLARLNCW

T18: Bzz1-1, P38822
T18 sequence (P38822 478-572, looked up): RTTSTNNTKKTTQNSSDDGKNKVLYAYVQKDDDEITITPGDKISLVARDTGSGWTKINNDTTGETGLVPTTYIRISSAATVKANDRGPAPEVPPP

T19: Bbc1, P47068
T19 sequence (P47068 1-78, looked up): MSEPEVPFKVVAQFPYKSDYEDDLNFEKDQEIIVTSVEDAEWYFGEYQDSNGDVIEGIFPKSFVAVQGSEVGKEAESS

T20: Lsb3, P43603
T20 sequence (P43603 385-451, looked up): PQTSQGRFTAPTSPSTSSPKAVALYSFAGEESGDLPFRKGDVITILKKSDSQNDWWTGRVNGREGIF

T21: Boi2, P39969
T21 sequence (P39969 32-116, looked up): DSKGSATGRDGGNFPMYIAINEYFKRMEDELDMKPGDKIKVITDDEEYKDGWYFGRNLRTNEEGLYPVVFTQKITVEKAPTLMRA

B1: unnamed (peptide)
chain: HHNRRKPLEVYFKAT
B2: unnamed (peptide)
chain: YHSRRHPLALGFKYV
B3: unnamed (peptide)
chain: HKVLRPFLLRRLKKD

What follows are binders tested against T1, Sla1-2, P32790 (assay: SPOT array). Settings: median of control spots 712.

Row | Binder | SPOT intensity
1 | B1 | 0
2 | B2 | 0
3 | B3 | 0

What follows are binders tested against T2, Bzz1-2, P38822 (assay: SPOT array). Settings: median of control spots 4538.

Row | Binder | SPOT intensity
4 | B1 | 0
5 | B2 | 0
6 | B3 | 0

What follows are binders tested against T3, Lsb1, P53281 (assay: SPOT array). Settings: median of control spots 388.

Row | Binder | SPOT intensity
7 | B1 | 0
8 | B2 | 0
9 | B3 | 0

What follows are binders tested against T4, Hof1, Q05080 (assay: SPOT array). Settings: median of control spots 4086.

Row | Binder | SPOT intensity
10 | B1 | 12
11 | B2 | 0
12 | B3 | 0

Each binder was assayed against Rvs167, P39743 (assay: SPOT array). Settings: median of control spots 2707.
Rvs167, P39743, sequence (P39743 419-482): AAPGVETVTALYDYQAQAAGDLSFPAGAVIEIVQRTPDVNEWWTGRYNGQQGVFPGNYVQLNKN

Row | Binder | SPOT intensity
13 | B1 | 2
14 | B2 | 0
15 | B3 | 0

Each binder was assayed against T5, Cyk3, Q07533 (assay: SPOT array). Settings: median of control spots 1451.

Row | Binder | SPOT intensity
16 | B1 | 3
17 | B2 | 3
18 | B3 | 3

These binders were tested against T6, Fus1, P11710 (assay: SPOT array). Settings: median of control spots 1200.

Row | Binder | SPOT intensity
19 | B1 | 565
20 | B2 | 5
21 | B3 | 52

What follows are binders tested against T7, Hse1, P38753 (assay: SPOT array). Settings: median of control spots 1727.

Row | Binder | SPOT intensity
22 | B1 | 6
23 | B2 | 0
24 | B3 | 11

Each binder was assayed against T8, Boi1, P38041 (assay: SPOT array). Settings: median of control spots 1162.

Row | Binder | SPOT intensity
25 | B1 | 0
26 | B2 | 0
27 | B3 | 1

The binders below were run against T9, Myo5, Q04439 (assay: SPOT array). Settings: median of control spots 471.

Row | Binder | SPOT intensity
28 | B1 | 1
29 | B2 | 0
30 | B3 | 0

The binders below were run against T10, Lsb4, P32793 (assay: SPOT array). Settings: median of control spots 397.

Row | Binder | SPOT intensity
31 | B1 | 1
32 | B2 | 0
33 | B3 | 0

What follows are binders tested against T11, Pin3, Q06449 (assay: SPOT array). Settings: median of control spots 2171.

Row | Binder | SPOT intensity
34 | B1 | 20
35 | B2 | 13
36 | B3 | 4

What follows are binders tested against T12, Sla1-3, P32790 (assay: SPOT array). Settings: median of control spots 5475.

Row | Binder | SPOT intensity
37 | B1 | 14
38 | B2 | 9
39 | B3 | 30

These binders were tested against T13, Nbp2, Q12163 (assay: SPOT array). Settings: median of control spots 357.

Row | Binder | SPOT intensity
40 | B1 | 0
41 | B2 | 0
42 | B3 | 13

Each binder was assayed against T14, Abp1, P15891 (assay: SPOT array). Settings: median of control spots 935.

Row | Binder | SPOT intensity
43 | B1 | 10
44 | B2 | 0
45 | B3 | 34

The binders below were run against Bem1-2, P29366 (assay: SPOT array). Settings: median of control spots 4347.
Bem1-2, P29366, sequence (P29366 139-227): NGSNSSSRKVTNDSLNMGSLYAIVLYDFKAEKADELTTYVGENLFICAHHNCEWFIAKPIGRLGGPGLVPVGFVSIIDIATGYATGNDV

Row | Binder | SPOT intensity
46 | B1 | 6
47 | B2 | 10
48 | B3 | 1

Each binder was assayed against T15, Pex13, P80667 (assay: SPOT array). Settings: median of control spots 1341.

Row | Binder | SPOT intensity
49 | B1 | 16
50 | B2 | 4
51 | B3 | 0

What follows are binders tested against T16, Cdc25, P04821 (assay: SPOT array). Settings: median of control spots 969.

Row | Binder | SPOT intensity
52 | B1 | 10
53 | B2 | 6
54 | B3 | 67

The binders below were run against T17, Bud14, P27637 (assay: SPOT array). Settings: median of control spots 956.

Row | Binder | SPOT intensity
55 | B1 | 10
56 | B2 | 4
57 | B3 | 21

The binders below were run against GST (assay: SPOT array). Settings: median of control spots 978.

Row | Binder | SPOT intensity
58 | B1 | 1
59 | B2 | 0
60 | B3 | 0

The binders below were run against Sho1, P40073 (assay: SPOT array). Settings: median of control spots 1148.
Sho1, P40073, sequence (P40073 287-367): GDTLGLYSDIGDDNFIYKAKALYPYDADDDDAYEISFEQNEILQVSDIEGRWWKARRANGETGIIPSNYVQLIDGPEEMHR

Row | Binder | SPOT intensity
61 | B1 | 43
62 | B2 | 7
63 | B3 | 26

What follows are binders tested against T18, Bzz1-1, P38822 (assay: SPOT array). Settings: median of control spots 4446.

Row | Binder | SPOT intensity
64 | B1 | 3
65 | B2 | 0
66 | B3 | 1

What follows are binders tested against T19, Bbc1, P47068 (assay: SPOT array). Settings: median of control spots 796.

Row | Binder | SPOT intensity
67 | B1 | 7
68 | B2 | 2
69 | B3 | 333

What follows are binders tested against T20, Lsb3, P43603 (assay: SPOT array). Settings: median of control spots 406.

Row | Binder | SPOT intensity
70 | B1 | 0
71 | B2 | 0
72 | B3 | 0

Each binder was assayed against Bem1-1, P29366 (assay: SPOT array). Settings: median of control spots 4282.
Bem1-1, P29366, sequence (P29366 55-141): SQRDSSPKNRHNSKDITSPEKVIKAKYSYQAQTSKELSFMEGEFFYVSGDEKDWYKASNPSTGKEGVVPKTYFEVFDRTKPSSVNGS

Row | Binder | SPOT intensity
73 | B1 | 43
74 | B2 | 0
75 | B3 | 0

What follows are binders tested against T21, Boi2, P39969 (assay: SPOT array). Settings: median of control spots 1161.

Row | Binder | SPOT intensity
76 | B1 | 2
77 | B2 | 0
78 | B3 | 0

Each binder was assayed against Myo3, P36006 (assay: SPOT array). Settings: median of control spots 468.

Row | Binder | SPOT intensity
79 | B1 | 3
80 | B2 | 1
81 | B3 | 0
